System: Escherichia coli TOP10
Assay: shrunken log2 fold change of peptide-encoding DNA abundance (4.5 h post-induction vs induction); higher = less antimicrobial activity (less host growth inhibition)
Conditions: time post-induction: 4.5 h; library: site-saturation at positions 5, 18, 19, 20
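Further: peptides expressed intracellularly from a pBAD plasmid library in pooled LB shake-flask culture, induced with 0.3% L-arabinose, DNA abundance read by NGS, three biological replicates, DESeq2 with apeglm shrinkage.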

Sequence | shrunken log2 fold change
RRIRSRPPRLPRPRPRPNHRPRP | -0.426
RRIRYRPPRLPRPRPRPNNCPRP | -0.0707
RRIRARPPRLPRPRPRPPMTPRP | 0.88
RRIRKRPPRLPRPRPRPYKHPRP | -0.347
RRIRFRPPRLPRPRPRPNFPPRP | -0.254
RRIRWRPPRLPRPRPRPVFIPRP | -0.22
RRIRERPPRLPRPRPRPEGFPRP | -0.00351
RRIRIRPPRLPRPRPRPGLRPRP | -0.0223
RRIRCRPPRLPRPRPRPTKSPRP | -0.0425
RRIRYRPPRLPRPRPRPAGFPRP | -0.0806
RRIRERPPRLPRPRPRPVHVPRP | -0.389
RRIRFRPPRLPRPRPRPHPIPRP | -0.0674
RRIRQRPPRLPRPRPRPSMAPRP | -0.135
RRIRIRPPRLPRPRPRPCYNPRP | -0.329
RRIRKRPPRLPRPRPRPVCYPRP | 0.242
RRIRVRPPRLPRPRPRPDWDPRP | 0.0311
RRIRFRPPRLPRPRPRPNTTPRP | -0.0257
RRIRYRPPRLPRPRPRPVHHPRP | -0.211
RRIRPRPPRLPRPRPRPALMPRP | 0.31
RRIRDRPPRLPRPRPRPCGMPRP | 0.0207

Sequence | shrunken log2 fold change
RRIRGRPPRLPRPRPRPCMPPRP | -0.152
RRIRWRPPRLPRPRPRPCQHPRP | -0.116
RRIRKRPPRLPRPRPRPRVSPRP | 0.198
RRIRERPPRLPRPRPRPQAMPRP | 0.00616
RRIRLRPPRLPRPRPRPWYNPRP | 0.111
RRIRPRPPRLPRPRPRPNWEPRP | 0.0541
RRIRKRPPRLPRPRPRPHQCPRP | -0.0321
RRIRERPPRLPRPRPRPMQIPRP | -0.0552
RRIRSRPPRLPRPRPRPGWEPRP | -0.0365
RRIRKRPPRLPRPRPRPGYPPRP | 0.0931
RRIRSRPPRLPRPRPRPERTPRP | 0.0493
RRIRPRPPRLPRPRPRPNPYPRP | -0.465
RRIRNRPPRLPRPRPRPTYDPRP | -0.396
RRIRCRPPRLPRPRPRPFWIPRP | -0.513
RRIRIRPPRLPRPRPRPKAQPRP | -0.0442
RRIRLRPPRLPRPRPRPAPNPRP | 0.555
RRIRTRPPRLPRPRPRPFSGPRP | -0.0204
RRIRFRPPRLPRPRPRPPWVPRP | 0.401
RRIRYRPPRLPRPRPRPVSWPRP | 0.106
RRIRYRPPRLPRPRPRPWNVPRP | -0.0218

Sequence | shrunken log2 fold change
RRIRWRPPRLPRPRPRPARMPRP | 0.362
RRIRLRPPRLPRPRPRPRSSPRP | -0.277
RRIRPRPPRLPRPRPRPAFQPRP | 0.156
RRIRARPPRLPRPRPRPAFFPRP | 0.479
RRIRKRPPRLPRPRPRPTHAPRP | 0.505
RRIRYRPPRLPRPRPRPRYIPRP | -0.397
RRIRCRPPRLPRPRPRPSKRPRP | -0.12
RRIRERPPRLPRPRPRPPMLPRP | 1.29
RRIRLRPPRLPRPRPRPEVRPRP | -0.0732
RRIRRRPPRLPRPRPRPDTWPRP | -0.131
RRIRTRPPRLPRPRPRPDPIPRP | 0.03
RRIRSRPPRLPRPRPRPTVMPRP | 0.00504
RRIRTRPPRLPRPRPRPWLNPRP | -0.0665
RRIRMRPPRLPRPRPRPKWWPRP | 0.755
RRIRYRPPRLPRPRPRPTFAPRP | -0.321
RRIRYRPPRLPRPRPRPTGAPRP | 0.136
RRIRWRPPRLPRPRPRPQSWPRP | 0.302
RRIRYRPPRLPRPRPRPVCVPRP | -0.339
RRIRGRPPRLPRPRPRPEPRPRP | 1.35
RRIRARPPRLPRPRPRPLQGPRP | 0.0704

— the supplement of paper PMC9112550, “Optimization of the antimicrobial peptide Bac7 by deep mutational scanning” (BMC Biology, 2022)
